Three molecules from patent US20250257126A1 (CAMBRIDGE ENTERPRISE, published 2025) can be followed below.

In assay [1] the target is T1, human LGR5-eGFP transgene (human, UniProt O75473 22-907).
T1 construct: Tested on live or fixed cells and as cell lysates on western blots; also called hLGR5-eGFP; LGR5-GFP
T1 sequence: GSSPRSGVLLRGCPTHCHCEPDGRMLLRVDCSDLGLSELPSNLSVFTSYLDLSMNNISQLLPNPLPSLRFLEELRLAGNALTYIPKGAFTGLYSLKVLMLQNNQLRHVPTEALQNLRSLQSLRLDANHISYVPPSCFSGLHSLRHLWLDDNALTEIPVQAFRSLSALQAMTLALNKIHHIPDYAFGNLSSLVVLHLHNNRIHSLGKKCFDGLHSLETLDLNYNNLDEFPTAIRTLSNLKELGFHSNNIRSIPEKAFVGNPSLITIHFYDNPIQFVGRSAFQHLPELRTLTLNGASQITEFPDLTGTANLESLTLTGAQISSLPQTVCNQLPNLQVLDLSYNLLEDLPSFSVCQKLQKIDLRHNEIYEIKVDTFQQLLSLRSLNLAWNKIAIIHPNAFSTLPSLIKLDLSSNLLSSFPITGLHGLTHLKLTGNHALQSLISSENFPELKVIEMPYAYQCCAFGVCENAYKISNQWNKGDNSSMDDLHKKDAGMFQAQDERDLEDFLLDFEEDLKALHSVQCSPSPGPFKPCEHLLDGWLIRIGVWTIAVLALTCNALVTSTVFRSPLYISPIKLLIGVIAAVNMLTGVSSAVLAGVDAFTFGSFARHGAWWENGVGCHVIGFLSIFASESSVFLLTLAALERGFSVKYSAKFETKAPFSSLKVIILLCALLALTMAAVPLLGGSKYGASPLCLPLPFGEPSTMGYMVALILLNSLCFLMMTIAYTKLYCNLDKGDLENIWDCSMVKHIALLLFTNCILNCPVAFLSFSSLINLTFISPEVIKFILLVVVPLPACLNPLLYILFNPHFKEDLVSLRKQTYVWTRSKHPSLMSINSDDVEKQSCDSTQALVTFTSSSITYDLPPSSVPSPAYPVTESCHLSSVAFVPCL
The experiment in a line: western blot of HEK293T lysates expressing the human LGR family transgenes. A general note: A western blot detects proteins with antibodies after separation by electrophoresis.

The target in assay [2] is T2, human LGR4 transgene (human, UniProt Q9BXB1 25-951).
T2 construct: whole, on cells; Overexpressed in HEK293T cells with N-terminal HA tag, V2 receptor tail and eGFP; also tested as lysate; also called hLGR4; LGR4-eGFP
Briefly: immunofluorescence of HEK293T cells expressing LGR-eGFP transgenes with α-LGR5v4. The source says: (§1) B. Indirect immune fluorescence analysis of human and murine LGR family expressing HEK293T cells using the a-LGR5v4 antibody (in red), the Alexa488-coupled Phalloidin F-actin probe alongside eGFP fluorescence imaging. In the bottom row of images, LGR5-expressing HEK293T cells were stained with a-LGR5v6. C. H&E staining of tissue sections from a-LGR5v6-ADC (top row) and a-LGR5v4-ADC (bottom row) treated mice.

The target of assay [3] is T3, murine LGR4 transgene (mouse, UniProt A2ARI4 25-951).
T3 construct: whole, on cells; Overexpressed in HEK293T cells with N-terminal HA tag, V2 receptor tail and eGFP; also tested as lysate; also called mLGR4
The assay is described as above.
Text: as §1

Assay [4] addresses T4, endogenous human LGR5 of cancer cell lines (human, UniProt O75473 22-907).
T4 construct: Untagged LGR5 as expressed by human LoVo, NALM6, REH cells and CRC organoids; also called LGR5 on LoVo cells; LGR5 on NALM6 cells
T4 sequence: T1 sequence
Briefly: flow cytometry of LoVo and NALM6 cells after 60 minutes with fluorescent antibodies, α-HER2 against α-LGR5. (In general: Flow cytometry measures light scatter and fluorescence of single cells or particles in a stream.)

Assay [5] deals with T1, human LGR5-eGFP transgene. Briefly: western blot of lysates of HEK293T cells expressing mLGR5, hLGR5 or cynoLGR5 transgenes, probed with α-LGR5v4. Here is the method: as §1
(§2) Western blots of HEK293t, LoVo and NALM6 lysates was carried out with 40 μg of protein.

In assay [6] the target is T5, murine LGR5 transgene (mouse, UniProt Q9Z1P4 22-907).
T5 construct: whole, on cells; Overexpressed in HEK293T cells with N-terminal HA tag, V2 receptor tail and eGFP; also tested as lysate; also called mLGR5; mLGR5-eGFP
T5 sequence (looked up): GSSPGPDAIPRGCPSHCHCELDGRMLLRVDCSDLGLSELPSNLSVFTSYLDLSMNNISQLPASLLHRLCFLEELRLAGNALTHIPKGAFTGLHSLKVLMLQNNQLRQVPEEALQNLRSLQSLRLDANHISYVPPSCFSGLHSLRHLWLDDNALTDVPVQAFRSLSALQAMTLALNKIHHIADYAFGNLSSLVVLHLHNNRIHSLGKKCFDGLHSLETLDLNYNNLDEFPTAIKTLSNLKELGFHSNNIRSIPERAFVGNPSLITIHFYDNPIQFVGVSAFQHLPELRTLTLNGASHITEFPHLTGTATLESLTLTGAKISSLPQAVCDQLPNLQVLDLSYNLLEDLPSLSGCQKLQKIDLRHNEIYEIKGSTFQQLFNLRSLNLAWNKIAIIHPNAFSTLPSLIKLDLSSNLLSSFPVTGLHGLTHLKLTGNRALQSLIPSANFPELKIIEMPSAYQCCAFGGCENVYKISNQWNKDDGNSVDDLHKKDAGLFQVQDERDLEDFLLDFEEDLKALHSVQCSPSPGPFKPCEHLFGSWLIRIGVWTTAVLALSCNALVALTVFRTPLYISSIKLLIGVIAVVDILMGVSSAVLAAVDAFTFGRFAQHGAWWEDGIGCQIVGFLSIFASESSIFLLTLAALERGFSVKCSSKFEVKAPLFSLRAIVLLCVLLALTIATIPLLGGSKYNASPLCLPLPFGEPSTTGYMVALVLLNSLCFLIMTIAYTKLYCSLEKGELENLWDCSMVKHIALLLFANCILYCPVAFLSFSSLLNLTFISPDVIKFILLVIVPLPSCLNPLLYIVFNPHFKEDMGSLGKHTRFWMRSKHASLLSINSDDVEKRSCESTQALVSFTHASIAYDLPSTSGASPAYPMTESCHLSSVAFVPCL
The assay is described as above. The procedure:
as §1, §2

For assay [7], the target named is T5, murine LGR5 transgene. The experiment in a line: western blot of lysates of HEK293T cells expressing mLGR5, hLGR5 or cynoLGR5 transgenes, probed with hybridoma clone 1.

B1: hybridoma clone 12 (antibody, V domains shown)
VH: EVQLQQSGPELVKPGASVKISCKASGYTFTDYYMNWVKQSHGKSLEWIGDINPNNGGTIYNQKFKGKATLTVDKSSSTAYMELRSLTSEDSAVYYCASGYLFDYWGPGTTLTVSS
VL: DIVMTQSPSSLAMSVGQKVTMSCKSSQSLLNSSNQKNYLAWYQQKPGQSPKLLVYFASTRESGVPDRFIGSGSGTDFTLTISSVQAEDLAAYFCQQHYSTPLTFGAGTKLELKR
notes: Murine antibody; also called antibody 12
On to B1, for which the binding result in assay [1] was “binds”.

B2: α-LGR5 variant 4 (antibody, human IgG1, kappa, V domains shown)
VH: QVQLVQSGAEVKKPGASVKVSCKASGYTFTNYWMQWVRQAPGQGLEWIGEIDPSDSYTNYNQKFQGRVTLTVDTSTSTAYMELSSLRSEDTAVYYCARSLSGYVDYWGQGTTVTVSS
VL: EIVMTQSPATLSLSPGERATLSCRASQDISNRLNWYQQKPGQAVRLLISYRSRRHTGIPARFSGSGSGTDYTLTISSLEPEDFAVYYCQQGNSLPPTFGGGTKLEIKR
notes: Humanized antibody; also called α-LGR5v4; clone 2.4
For the molecule B2, the binding result in assay [2] is listed as “no binding”; in assay [3], “no binding”; in assay [4], “binds”; in assay [5], “binds”; in assay [6] it was “no binding”.

B3: α-LGR5 clone 1 (antibody, mouse IgG1, kappa, V domains shown)
VH: QVQLQQPGAELVKPGASVKLSCKASGYTFTSYWMQWVKQRPGQGLEWIGEIDPSDYYTNYNQKFKGKATLTVDTSSSTAYMQLSSLTSEDSAVYYCARSLSGYVDYWGQGTTLTVSS
VL: DIQMTQSTSSLSASLGDRVTINCRASQDIRNRLNWYQQKPDGTVKLLISYRSRLQSGVPSRFSGSGSGTEYSLTISNLEQEDIATYFCQQGNTLPPTFGGGTKLEVRR
notes: Murine monoclonal antibody from hybridoma; also called hybridoma clone 1; antibody 1
With B3, the binding result in assay [7] is given as “no binding”.
